Data as given in US20160002338A1 (Hoffmann-La Roche, published 2016).

What was measured:
[1] = target: T1, human recombinant HER4 ECD (human, UniProt Q15303 26-651); assay: SPR Biacore T200, antibody captured, 25 C
T1 construct: also called full length Her4 ECD
T1 sequence: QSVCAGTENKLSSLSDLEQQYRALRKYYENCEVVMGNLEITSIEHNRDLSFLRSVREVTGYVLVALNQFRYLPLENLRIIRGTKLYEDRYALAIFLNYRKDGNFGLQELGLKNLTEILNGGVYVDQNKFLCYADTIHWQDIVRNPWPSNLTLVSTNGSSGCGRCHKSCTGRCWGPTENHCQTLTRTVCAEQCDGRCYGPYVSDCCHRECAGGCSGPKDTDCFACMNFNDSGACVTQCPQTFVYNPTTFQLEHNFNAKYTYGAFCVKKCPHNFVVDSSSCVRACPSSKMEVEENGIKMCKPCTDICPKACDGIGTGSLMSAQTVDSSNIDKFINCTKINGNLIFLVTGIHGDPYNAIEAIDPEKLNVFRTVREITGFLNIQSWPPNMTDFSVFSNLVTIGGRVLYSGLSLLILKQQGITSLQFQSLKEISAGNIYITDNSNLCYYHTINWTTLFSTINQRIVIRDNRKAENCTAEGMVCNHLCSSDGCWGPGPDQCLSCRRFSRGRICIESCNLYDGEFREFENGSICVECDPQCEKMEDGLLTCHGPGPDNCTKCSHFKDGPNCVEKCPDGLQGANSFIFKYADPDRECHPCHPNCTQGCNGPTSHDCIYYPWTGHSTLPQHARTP
Experimental: (§1) A Biacore T200 instrument (GE Healthcare) was mounted with a CM5 series sensor. The sensor was normalized in HBS-ET buffer (10 mM HEPES pH 7.4, 150 mM NaCl, 3 mM EDTA, 0.05% w/v Tween 20) according to the manufacturer's instructions. The sample buffer was the system buffer supplemented with 1 mg/ml CMD (Carboxymethyldextran, Sigma #86524). The system operated at 25° C. 6500 RU RAM-Fey (relative units of Fey-fragment RamIgG, GE Healthcare) were immobilized according to the manufacturer's instructions using amine coupling EDC/NHS chemistry on all four flow cells. The sensor was deactivated using 1M ethanolamine. […] Concentration dependent kinetics were measured. […] All analytes were injected for 5 min association time and 10 min dissociation time at 100 μl/min flow rate. The sensor capture system was regenerated by a 3 min injection at 10 μl/min of 10 mM glycine pH 1.7. Where possible kinetic data was evaluated using the Biacore T200 evaluation software.

human HER1 ECD = human HER1 ECD (human, UniProt P00533 25-645); assay: SPR Biacore T200, antibody captured, 25 C
Experimental: as §1

HER3 ECD-HRG complex = target: T2, HER3 ECD-HRG complex (human, UniProt P21860 20-643); assay: SPR Biacore T200, antibody captured, 25 C
T2 construct: also called Heregulin/Her-3 ECD
Experimental: as §1

HER4 ECD-HRG complex = target: T3, HER4 ECD-HRG complex (human, UniProt Q15303 26-651); assay: SPR Biacore T200, antibody captured, 25 C
T3 construct: HER4 ECD preincubated with a 5-fold molar excess of Heregulin; also called HER-4-ECD-RG
T3 sequence 1: T1 sequence
T3 sequence 2: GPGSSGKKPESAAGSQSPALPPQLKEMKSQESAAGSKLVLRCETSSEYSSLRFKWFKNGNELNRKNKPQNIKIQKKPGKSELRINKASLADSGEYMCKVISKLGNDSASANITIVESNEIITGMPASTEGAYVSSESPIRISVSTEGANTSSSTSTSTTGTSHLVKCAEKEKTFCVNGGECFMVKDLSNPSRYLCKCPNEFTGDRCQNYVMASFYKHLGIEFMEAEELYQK
Experimental: as §1

[2] = target: T4, human recombinant HER3 ECD (human, UniProt P21860 20-643); assay: SPR Biacore 4000, antibody captured, antigen 150 nM, 25 C
T4 construct: 68 kDa; also called human-Her3-ECD; full length Her3 ECD
Experimental: (§2) In all assay the test antibodies were captured. The system was under the control of the software version V1.1. The instrument buffer was HBS-EP (10 mM HEPES (pH 7.4), 150 mM NaCl, 1 mM EDTA, 0.05% (w/v) P20). The system operated at 25° C. 30 μg/ml Rabbit polyclonal antibody (RAM IgG, (Rabbit anti Mouse IgG with Fc gamma specificity) GE Healthcare) in 10 mM sodium acetate buffer (pH 4.5) was immobilized using EDC/NHS chemistry according to the manufacturer's instructions on the spots 1, 2, 4 and 5 in the flow cells 1, 2, 3 and 4. The sensor was saturated using 1M ethanolamine. In each flow cell, referenced signals were calculated using spots 1-2 and spots 5-4, spot 3 served as a blanc control. […] The antibody capture level (CL) in response units was monitored. […] Thereafter, the antibody-antigen complex dissociation signal was recorded for 5 min. […] The recorded signal shortly before the end of the injection of the antigen was denoted as binding late (BL) in response units. The recorded signal shortly before the end of the recording of the dissociation is denoted as stability late (SL) in response units. The dissociation rate constants were determined calculated The antibody-antigen complex stability in minutes was calculated with the following formula: ln(2)/60*kd. The Molar Ratio was calculated with the formula: MW (antibody)/MW(antigen)*BL (antigen)/CL (antibody). […]

TtSlyD-FKBP-Her3 = target: T5, TtSlyD-FKBP-Her3; assay: as above
T5 construct: 15 kDa; N-terminal Met may be present or not; also called Thermus thermophilus SlyD FKBP-Her3; thermo SlyD-Her3
T5 chain: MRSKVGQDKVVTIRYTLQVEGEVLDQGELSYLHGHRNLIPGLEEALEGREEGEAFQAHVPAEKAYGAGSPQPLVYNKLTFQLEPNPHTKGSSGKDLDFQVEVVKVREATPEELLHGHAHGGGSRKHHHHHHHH
Experimental: as §2

T4 sequence (P21860 20-643): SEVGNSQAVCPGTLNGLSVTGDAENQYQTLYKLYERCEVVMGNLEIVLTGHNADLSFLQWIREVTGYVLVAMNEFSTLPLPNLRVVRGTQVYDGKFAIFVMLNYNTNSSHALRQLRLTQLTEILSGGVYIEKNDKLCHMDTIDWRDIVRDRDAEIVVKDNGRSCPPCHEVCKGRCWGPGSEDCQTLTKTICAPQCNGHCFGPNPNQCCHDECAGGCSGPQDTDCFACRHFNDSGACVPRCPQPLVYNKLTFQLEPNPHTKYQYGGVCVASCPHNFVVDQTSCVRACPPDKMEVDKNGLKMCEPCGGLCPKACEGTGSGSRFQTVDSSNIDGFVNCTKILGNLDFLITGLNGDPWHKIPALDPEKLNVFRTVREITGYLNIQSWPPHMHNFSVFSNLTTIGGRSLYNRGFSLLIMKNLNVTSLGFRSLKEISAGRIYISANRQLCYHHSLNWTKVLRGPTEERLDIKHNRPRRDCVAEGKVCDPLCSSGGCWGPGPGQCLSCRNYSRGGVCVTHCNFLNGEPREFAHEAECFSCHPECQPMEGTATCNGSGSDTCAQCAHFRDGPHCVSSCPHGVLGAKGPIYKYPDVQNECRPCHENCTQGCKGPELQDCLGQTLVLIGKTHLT
T2 sequence (P21860 20-643 limits assumed, one chain of several): as the sequence (P21860 20-643) above

B1: anti-HER3/HER4 antibody M-05-74 (antibody, V domains shown)
VH: QVQLQQSGAELAKPGASVKMSCKTSGYTLTDYWIHWVKQRPGQGLEWIGYINPYTGYTESNQKFKDKATLTADKSSNTAYIQLSSLTSEDSAVYYCARPYYYGDYWGQGTTLTVSS
VL: QIVLTQSPAIMSASPGERVTITCSASSSVSYMHWFQQKPGTSPKLLIYSTSNLASGVPARFSGSGSGTSYSLTISRMEAEDAATYYCQQRSSYPFTFGSGTKLEIK
notes: murine monoclonal antibody from hybridoma (supernatant or purified); also called M-074; M-5-74
- Molar Ratio MR [1]: 0.1
- binding result (human HER1 ECD): no binding (tested: 90 nM)
- Molar Ratio MR (HER3 ECD-HRG complex): 0.8
- Molar Ratio MR (HER4 ECD-HRG complex): 0.8
- Molar Ratio MR [2]: 0.5
- Molar Ratio MR (TtSlyD-FKBP-Her3): 1.1
